The text below walks through data of article PMC12312386, “Multiple transactivation domains of EZH2 bind to the TAZ2 domain of p300 and stimulate the acetyltransferase function of p300” (Biochemical Journal, 2025).

The target of this assay is p300 TAZ2 domain with 6xHis tag (p300_(TAZ2)-6×His) (human) (UniProt Q09472). As to the kind of experiment: MST; p300_(TAZ2)-6×His labelled with RED-tris-NTA, constant at 10 nM; peptide varied by serial dilution; 25 mM Tris pH 7.5, 150 mM NaCl, 2.5 mM DTT; 1:1 stoichiometry fit.

By Kd is commonly meant a measure of binding affinity in units of concentration. A low value points to tighter binding. “EZH2_(TAD1) peptide (aa 142-154 of EZH2) (from UniProt Q15910 142-154)” showed a dissociation constant Kd of 520 nM. In the case of “EZH2_(TAD2) peptide (aa 167-185 of EZH2) (from UniProt Q15910 167-185)” it was 310 nM; in that of “EZH2_(TAD3) peptide (aa 220-231 of EZH2) (from UniProt Q15910 220-231)”, 530 nM.
